Substitutions are numbered along the chain they refer to. In names and notes the source's numbering stands. Several values for one entry are separate records, joined by “and”; a condition that tells them apart may be missing. Equal entries are not always repeated.
B1: G182A: protease variant of SEQ ID NO 3 (protein, listed as Bacillus sp.)
chain: AVPSTQTPWGIKSIYNDQSITKTTGGSGIKVAVLDTGVYTSHLDLAGSAEQCKDFTQSNPLVDGSCTDRQGHGTHVAGTVLAHGGSNGQGVYGVAPQAKLWAYKVLGDNGSGYSDDIAAAIRHVADEASRTGSKVVINMSLGSSAKDSLIASAVDYAYGKGVLIVAAAGNSGSGSNTIGFPAGLVNAVAVAALENVQQNGTYRVADFSSRGNPATAGDYIIQERDIEVSAPGASVESTWYTGGYNTISGTSMATPHVAGLAAKIWSANTSLSHSQLRTELQNRAKVYDIKGGIGAGTGDDYASGFGYPRVK
B2: S173P + S175P + F180Y + G182S: protease variant of SEQ ID NO 3 (protein, listed as Bacillus sp.)
chain: B1 chain with S173P, S175P, F180Y, A182S
B3: S173P + S175P + F180Y + L184Y: protease variant of SEQ ID NO 3 (protein, listed as Bacillus sp.)
chain: B1 chain with S173P, S175P, F180Y, A182G, L184Y
B4: K146F + S173P + S175P + F180Y: protease variant of SEQ ID NO 3 (protein, listed as Bacillus sp.)
chain: B1 chain with K146F, S173P, S175P, F180Y, A182G
B5: S173P + S175P + F180Y + G182A: protease variant of SEQ ID NO 3 (protein, listed as Bacillus sp.)
chain: B1 chain with S173P, S175P, F180Y
B6: S114F + S173P + S175P + F180Y: protease variant of SEQ ID NO 3 (protein, listed as Bacillus sp.)
chain: B1 chain with S114F, S173P, S175P, F180Y, A182G
B7: S173P + S175P + F180Y + L184F: protease variant of SEQ ID NO 3 (protein, listed as Bacillus sp.)
chain: B1 chain with S173P, S175P, F180Y, A182G, L184F
B8: S144R: protease variant of SEQ ID NO 3 (protein, listed as Bacillus sp.)
chain: B1 chain with S144R, A182G
B9: S111E: protease variant of SEQ ID NO 3 (protein, listed as Bacillus sp.)
chain: B1 chain with S111E, A182G
B10: S173P + S175P + F180Y + L184H: protease variant of SEQ ID NO 3 (protein, listed as Bacillus sp.)
chain: B1 chain with S173P, S175P, F180Y, A182G, L184H
B11: S111D: protease variant of SEQ ID NO 3 (protein, listed as Bacillus sp.)
chain: B1 chain with S111D, A182G
B12: S173P + S175P + I178P + F180Y: protease variant of SEQ ID NO 3 (protein, listed as Bacillus sp.)
chain: B1 chain with S173P, S175P, I178P, F180Y, A182G
B13: A145E: protease variant of SEQ ID NO 3 (protein, listed as Bacillus sp.)
chain: B1 chain with A145E, A182G
B14: S114A + S173P + S175P + F180Y: protease variant of SEQ ID NO 3 (protein, listed as Bacillus sp.)
chain: B1 chain with S114A, S173P, S175P, F180Y, A182G
B15: S173P + S175P + I178Y + F180Y: protease variant of SEQ ID NO 3 (protein, listed as Bacillus sp.)
chain: B1 chain with S173P, S175P, I178Y, F180Y, A182G
B16: S114Q + S173P + S175P + F180Y: protease variant of SEQ ID NO 3 (protein, listed as Bacillus sp.)
chain: B1 chain with S114Q, S173P, S175P, F180Y, A182G
B17: S173P + S175P + F180Y + L184D: protease variant of SEQ ID NO 3 (protein, listed as Bacillus sp.)
chain: B1 chain with S173P, S175P, F180Y, A182G, L184D
B18: S173P + S175P + F180Y + L184W: protease variant of SEQ ID NO 3 (protein, listed as Bacillus sp.)
chain: B1 chain with S173P, S175P, F180Y, A182G, L184W
B19: S173P + S175P + I178F + F180Y: protease variant of SEQ ID NO 3 (protein, listed as Bacillus sp.)
chain: B1 chain with S173P, S175P, I178F, F180Y, A182G
B20: Q70A + S173P + S175P + F180Y: protease variant of SEQ ID NO 3 (protein, listed as Bacillus sp.)
chain: B1 chain with Q70A, S173P, S175P, F180Y, A182G
B21: K146R + S173P + S175P + F180Y: protease variant of SEQ ID NO 3 (protein, listed as Bacillus sp.)
chain: B1 chain with K146R, S173P, S175P, F180Y, A182G
B22: K146W + S173P + S175P + F180Y: protease variant of SEQ ID NO 3 (protein, listed as Bacillus sp.)
chain: B1 chain with K146W, S173P, S175P, F180Y, A182G
B23: K146T + S173P + S175P + F180Y: protease variant of SEQ ID NO 3 (protein, listed as Bacillus sp.)
chain: B1 chain with K146T, S173P, S175P, F180Y, A182G
B24: K146S + S173P + S175P + F180Y: protease variant of SEQ ID NO 3 (protein, listed as Bacillus sp.)
chain: B1 chain with K146S, S173P, S175P, F180Y, A182G
B25: L184F: protease variant of SEQ ID NO 3 (protein, listed as Bacillus sp.)
chain: B1 chain with A182G, L184F
B26: L184Y: protease variant of SEQ ID NO 3 (protein, listed as Bacillus sp.)
chain: B1 chain with A182G, L184Y
B27: K146A + S173P + S175P + F180Y: protease variant of SEQ ID NO 3 (protein, listed as Bacillus sp.)
chain: B1 chain with K146A, S173P, S175P, F180Y, A182G
B28: S111I + S173P + S175P + F180Y: protease variant of SEQ ID NO 3 (protein, listed as Bacillus sp.)
chain: B1 chain with S111I, S173P, S175P, F180Y, A182G
B29: K146N + S173P + S175P + F180Y: protease variant of SEQ ID NO 3 (protein, listed as Bacillus sp.)
chain: B1 chain with K146N, S173P, S175P, F180Y, A182G

Key:
[1] = Inhibitor binding assay of SEQ ID NO 3 variants, Inhibitor 1, in Model B detergent; type: biochemical; conditions: relative Ki, IF>1.0 = lower Ki
Description: (§1) Where E is the protease, I is the inhibitor and EI is the protease-inhibitor complex. […] The concentration of enzyme-inhibitor in the detergent solution is then given by:
(§2) where Etot is the total protease concentration ([Etot]=[E]+[EI]), Itot is the total inhibitor concentration ([Itot]=[I]+[EI]), and Ki is the equilibrium binding constant for the reaction. The measured slopes V are given by:
(§3) where V0 is the slope without inhibitor added. To calculate apparent binding constant Ki least square fitting of measured slopes at various inhibitor concentrations to this equation is performed with Ki and V0 as variables.
(§4) Purified protease variants are pre-diluted to approximately 0.2 mg/ml in dilution buffer. The experimental conditions are described in Table 5. 40 μl diluted protease is then mixed with 40 μl inhibitor solution Inhibitor 1: (Cbz-Gly-Ala-NHCH(CH2C6H4pOH)C(OH)(SO3Na)—H, wherein Cbz is benzyloxycarbonyl) or 40 μl Inhibitor 2: (4-FPBA) solution in the well of a 96 well microtiter plate (Nunc F 96-MTP). […] After 10 min mixing of protease and inhibitor at room temperature, 30 μl of the mixture is transferred to a microtiter plate (Nunc U96 PP 0.5 ml) with 270 μl Model B detergent (described in Table 1) in the wells resulting in inhibitor 1 concentrations of 0-30 μM and inhibitor 2 concentrations of 0-6000 μM. Protease, inhibitor and detergent is mixed for 1 hour using magnetic bars for 1 hour at room temperature to reach equilibrium. Then 20 μl is transferred to a microtiter plate (Nunc F 96-MTP). 100 μl substrate solution is added and after 5 sec mixing absorbance at 405 nm is measured every 20 sec for 5 min on a SpectraMax Plus reader. Slope from linear regression of initial increase in absorbance at 405 nm is used for calculation of apparent binding constants. Ki values were calculated according to the “Calculation of Ki” method described in “Materials and Methods”
(§5) Having the Ki for each variant, it is possible to calculate the effect of a single mutation, if data are available for at least two variants that differ only by that mutation. In this case, the relative Ki for the mutation (Improvement Factor, or IF) is calculated:
(§6) A lower Ki is desirable, as a satisfactory inhibition can be obtained at a lower inhibitor concentration, so beneficial mutations have an IF>1.0

[2] = Inhibitor binding assay of SEQ ID NO 3 variants, Inhibitor 2, in Model B detergent; type: biochemical; conditions: in Model B relative to SEQ ID NO 3; relative Ki, IF>1.0 = lower Ki
Description: as §1, §2, §3, §4, §5, §6

[3] = in Model B relative to SEQ ID NO 3
[4] = in Model B relative to SEQ ID NO 3 comprising S173P + S175P + F180Y

Molecule | inhibitor 1 binding constant improvement factors (IF) [1, 4] | also measured
B1 |  | inhibitor 1 binding constant improvement factors (IF) [1, 3]: 1.86
B2 | 1.69 | 
B3 | 3.91 | 
B4 | 5.17 | 
B5 | 2.49 and 2.01 | 
B6 | 1.41 | 
B7 | 4.28 and 3.02 | 
B8 |  | inhibitor 2 binding constant improvement factors (IF) [2]: 2.03
B9 |  | inhibitor 2 binding constant improvement factors (IF) [2]: 1.23
B10 | 2.50 | 
B11 |  | inhibitor 2 binding constant improvement factors (IF) [2]: 1.53
B12 | 2.22 | 
B13 |  | inhibitor 2 binding constant improvement factors (IF) [2]: 1.03
B14 | 3.33 | 
B15 | 2.15 | 
B16 | 2.03 | 
B17 | 3.28 | 
B18 | 2.23 | 
B19 | 2.34 and 1.83 | 
B20 | 4.13 | 
B21 | 1.31 | 
B22 | 5.47 | 
B23 | 15.91 | 
B24 | 1.13 | 
B25 |  | inhibitor 2 binding constant improvement factors (IF) [2]: 1.39; inhibitor 1 binding constant improvement factors (IF) [1, 3]: 2.27
B26 |  | inhibitor 1 binding constant improvement factors (IF) [1, 3]: 4.47
B27 | 3.72 | 
B28 | 1.12 | 
B29 | 1.36 | 

Reference: US20170342349A1, “STABILIZED ENZYME COMPOSITIONS” (NOVOZYMES A/S, priority 2014, published 2017)
